Data reported in paper PMC5361862, “Insights into ClpXP proteolysis: heterooligomerization and partial deactivation enhance chaperone affinity and substrate turnover in Listeria monocytogenes” (Chemical Science, 2016).
Where a SMILES comes first, the peptide text is derived from it. [ ]: non-standard residue; d: D form. The star is where a group is joined. Phe(3,4-Cl2) = N[C@@H](Cc1ccc(Cl)c(Cl)c1)C(=O)O; hArg = N=C(N)NCCCC[C@H](N)C(=O)O; Aoc(2) = CCCCCC[C@H](N)C(=O)O; CH2Cl = ClC*

How the values were obtained:
LmClpXP2 [1] = biological target: T1, LmClpXP2 (Listeria monocytogenes, UniProt Q9RQI6); assay: proteolysis of GFP-SsrA, fluorescence; assay type: biochemical; conditions: with LmClpX; inhibitor 1, 10, 100 μM; covalent; inhibition
T1 construct: gene clpP; ClpP2 homotetradecamer (LmClpP14) with hexameric chaperone LmClpX6

LmClpP2 = biological target: T2, LmClpP2 (Listeria monocytogenes, UniProt Q9RQI6); assay: peptidase assay, Ac-Ala-hArg-Leu-ACC hydrolysis; assay type: biochemical; conditions: 1 μM ClpP; 200 μM substrate; inhibitor 1, 10, 100 μM; no ClpX; covalent
T2 construct: gene clpP; purified homotetradecamer; construct details in ESI

LmClpXP2 [2] = biological target: T1, LmClpXP2; assay: proteolysis of GFP-SsrA, fluorescence; assay type: biochemical
[3] = biological target: Listeria monocytogenes ClpP2 homotetradecamer (LmClpP2), unmodified (Listeria monocytogenes); assay: not stated; oligomeric state of LmClpP2 after treatment with inhibitors (E2, D3, Aoc-CMK, Leu-CMK), Fig. S4; method and conditions are in the ESI
[4] = biological target: Listeria monocytogenes ClpX chaperone (LmClpX) (Listeria monocytogenes) (UniProt Q8Y7K9)
[5] = biological target: Listeria monocytogenes ClpX chaperone (LmClpX) (Listeria monocytogenes) (UniProt Q8Y7K9); remark: listed apart in the source
[6] = biological target: LmClpP2 treated with Leu-CMK (Listeria monocytogenes); assay: not stated; oligomeric state of LmClpP2 after treatment with inhibitors (E2, D3, Aoc-CMK, Leu-CMK), Fig. S4; method and conditions are in the ESI
[7] = biological target: LmClpP2 treated with beta-lactone D3 (Listeria monocytogenes); assay: as above
[8] = biological target: Listeria monocytogenes ClpX chaperone (LmClpX) (Listeria monocytogenes) (UniProt Q8Y7K9); remark: listed apart in the source
[9] = biological target: partially Aoc-CMK-modified LmClpP2 homotetradecamer (Listeria monocytogenes); assay: not stated; oligomeric state of LmClpP2 after treatment with inhibitors (E2, D3, Aoc-CMK, Leu-CMK), Fig. S4; method and conditions are in the ESI

What does the source list for `COC(=O)c1ccc(OC(=O)CCc2cc(OC)c(OC)c(OC)c2)cc1` [AV170]?
% activity (LmClpXP2 [1]): AV170 turned out to be the most effective inhibitor against each complex; % activity (LmClpP2): AV170 and both CMK inhibitors were the most effective against LmClpP2

Which activity at 5 µM (LmClpXP2 [2]) does the source give for `CCCCCC[C@H](NC(=O)[C@H](CCCCNC(=N)N)NC(=O)[C@H](Cc1ccc(Cl)c(Cl)c1)NC(C)=O)C(=O)CCl` [Aoc-CMK] (Ac-[Phe(3,4-Cl2)]-[hArg]-[Aoc(2)]-CH2Cl) here?
Its activity at 5 µM is 162%.

With “Listeria monocytogenes ClpP2 homotetradecamer (LmClpP2), unmodified (enzyme)” as the compound, how does the stoichiometry N [3] read?
Its stoichiometry N is 14.

With “LmClpP1/2 heterocomplex containing Ser98 to Ala mutations” as the compound, how does the K app from unfolding activity on GFP-LmSsrA (0.125 uM) with 0.4 uM LmClpX6 and varying concentrations of LmClpP14 (S98A heterocomplex) [4] read?
The K app from unfolding activity on GFP-LmSsrA (0.125 uM) with 0.4 uM LmClpX6 and varying concentrations of LmClpP14 (S98A heterocomplex) was 224 nM.

“LmClpP1/2 heterooligomeric complex, wild type (LmClpP1^wt/2^wt)” was tested. Which K app from protease activity of LmClpXP1/2 at varying concentrations of LmClpP1/2 (LmClpP14) [5] did it give?
The K app from protease activity of LmClpXP1/2 at varying concentrations of LmClpP1/2 (LmClpP14) was 85 nM.

With LmClpP2 treated with Leu-CMK (enzyme) as the compound, how does the stoichiometry N [6] read?
Its stoichiometry N is 14.

For “LmClpP2 treated with beta-lactone D3 (enzyme)”, which stoichiometry N [7] is on record?
Its stoichiometry N is 14.

LmClpP2(S98A) homocomplex (enzyme) was tested. Which K app from unfolding activity on GFP-LmSsrA (0.125 uM) with 0.4 uM LmClpX6 and varying concentrations of LmClpP14 (S98A homocomplex) [4] did it give?
Its K app from unfolding activity on GFP-LmSsrA (0.125 uM) with 0.4 uM LmClpX6 and varying concentrations of LmClpP14 (S98A homocomplex) is 2360 nM.

With “partially Aoc-CMK-modified LmClpP2 homotetradecamer (enzyme)” as the compound, how does the protease activity (GFP-SsrA degradation) of LmClpXP2 at incremental Aoc-CMK concentrations, DMSO control as 100%; strongest at 5 uM Aoc-CMK, abolished at 50 uM [8] read?
The protease activity (GFP-SsrA degradation) of LmClpXP2 at incremental Aoc-CMK concentrations, DMSO control as 100%; strongest at 5 uM Aoc-CMK, abolished at 50 uM was 162%.

What about the stoichiometry N [9] of the same compound?
The stoichiometry N was 14.
